Test results taken from paper PMC7343156, “Purification and characterization of a novel medium-chain ribitol dehydrogenase from a lichen-associated bacterium Sphingomonas sp” (PLoS ONE, 2020).

Tests used:
[1] = substrate: NC(=O)c1ccc[n+]([C@@H]2O[C@H](COP(=O)(O)OP(=O)(O)OC[C@H]3O[C@@H](n4cnc5c(N)ncnc54)[C@H](O)[C@@H]3O)[C@@H](O)[C@H]2O)c1; test: purified protein; format: biochemical, Sphingomonas sp. PAMC 26621; conditions: 10-160 mM D-ribitol, NAD+ 0.05-1 mM, 100 mM potassium phosphate pH 8.0, 25°C, no added metal, varied: cofactor
[2] = substrate: OC[C@@H](O)[C@@H](O)[C@@H](O)CO; test: purified protein; format: biochemical, Sphingomonas sp. PAMC 26621; conditions: 10-160 mM D-ribitol, NAD+ 0.05-1 mM, 100 mM potassium phosphate pH 8.0, 25°C, no added metal

B1: SpRDH (Sphingomonas sp. PAMC 26621) (protein)
chain: MTQKTMTAVVCHGPKDYRVEEIAHPTAGALEFVIRVTACGICASDCKCWSGAKMFWGDDPWVKAPVVPGHEFFGVVDELGEGAGEHFGVAVGDRVIAEQIVPCERCRYCRSGQYWMCEVHNIFGFQRLVADGGMAQFMRLPRTSRVHLIPAEIPDDDAVIIEPLACALHTVRRGTIGFEDVVVIAGAGPIGLMMVQAARLQTPRKLVVIDMVPERLALATTFGADVVINPATDDALAIVHGLTDGYGCDVYIEATGSPAGVVQGLNLIRRLGRFVEFSVFGSDTTVDWSIIGDRKELDVRGAHLGPYCYPIAIDLLSRGLITSNGIVTHRFPLIQWAEAIAVADSLESIKVVLSPST
notes: native enzyme purified from Sphingomonas sp; PAMC 26621 grown on D-ribitol; untagged; identified by MALDI-TOF/TOF
- Km [1]: 0.3 ± 0.02 mM
- kcat [1]: 29 ± 0.7 s⁻¹
- Km [2]: 8.5 ± 1.2 mM
- kcat [2]: 29 ± 0.7 s⁻¹
- kcat/Km [2]: 3500 M⁻¹ s⁻¹
